Reference: patent US20210213134A1, “THIOL-BASED MULTIVALENT DRUG DELIVERY COMPOSITIONS” (ORPRO THERAPEUTICS, INC., priority 2018, published 2021)
Like-named read-outs stand apart in the source and are kept apart here.

Legend:
[1] = target: insulin (fully disulfide-bonded heterodimeric insulin); experiment: cell-based or functional assay
[2] = target: insulin (fully disulfide-bonded heterodimeric insulin); experiment: cell-based or functional assay; remark: listed apart in the source

| % reduction C35STRX (insulin heterodimer peak, RP-HPLC), 90 min [1] [%] | column 'C35STRX' (taken as insulin heterodimer peak area, RP-HPLC), 0 min [1] | column 'C35STRX' (taken as insulin heterodimer peak area, RP-HPLC), 90 min [1] | % reduction C35STRX (insulin heterodimer peak, RP-HPLC), 0 min [2] [%] | % reduction C35STRX (insulin heterodimer peak, RP-HPLC), 90 min [2] [%] | column 'C35STRX' (taken as insulin heterodimer peak area, RP-HPLC), 0 min [2] | column 'C35STRX' (taken as insulin heterodimer peak area, RP-HPLC), 90 min [2] | % reduction Azido-C35STRX (insulin heterodimer peak, RP-HPLC), 0 min [1] [%] | % reduction Azido-C35STRX (insulin heterodimer peak, RP-HPLC), 90 min [1] [%] | column 'Azido-C35STRX' (taken as insulin heterodimer peak area, RP-HPLC), 0 min [1] | column 'Azido-C35STRX' (taken as insulin heterodimer peak area, RP-HPLC), 90 min [1] | % reduction Azido-C35STRX (insulin heterodimer peak, RP-HPLC), 90 min [2] [%] | attenuation of the ability to reduce insulin disulfides vs. unconjugated monocysteinic thioredoxin [2] [%] | column 'Azido-C35STRX' (taken as insulin heterodimer peak area, RP-HPLC), 0 min [2] | column 'Azido-C35STRX' (taken as insulin heterodimer peak area, RP-HPLC), 90 min [2] | Binder |
| --- | --- | --- | --- | --- | --- | --- | --- | --- | --- | --- | --- | --- | --- | --- | --- |
| 97.7 | 10600 | 243 | 0 | 99.4 | 8520 | 50.2 |  |  |  |  |  |  |  |  | reduced (active) C35STRX (enzyme, active site Cys32 in the reduced state) MVKQIESKTAFQEALDAAGDKLVVVDFSATWCGPSKMIKPFFHSLSEKYSNVIFLEVDVDDCQDVASECEVKCMPTFQFFKKGQKVGEFSGANKEKLEATINELV |
|  |  |  |  |  |  |  | 0 | 33.1 | 10200 | 6840 | 32.7 | 70 | 8960 | 6030 | Azido-C35STRX (C35STRX with azido-PEG linkers on Lys residues, reduced) (enzyme, azido-PEG chains (NHS-PEG4-Azide) on Lys residues, average of 11 per molecule; active site Cys reduced with DTT) MVKQIESKTAFQEALDAAGDKLVVVDFSATWCGPSKMIKPFFHSLSEKYSNVIFLEVDVDDCQDVASECEVKCMPTFQFFKKGQKVGEFSGANKEKLEATINELV |
